Test results published in publication PMC9282883 (Nature, 2021).

Columns and labels:
[1] = target: SARS-CoV-2 RBD WT (for crystallization) (SARS-CoV-2, UniProt P0DTC2); assay: crystal structure
[2] = target: Prefusion-stabilized SARS-CoV-2 spike protein for SPR (residues 14–1211, D614G) (SARS-CoV-2 Wuhan-Hu-1 with D614G, D614G); assay: SPR
[3] = target: yeast-displayed unmutated SARS-CoV-2 RBD (Wuhan-Hu-1) (SARS-CoV-2, UniProt P0DTC2); assay: flow cytometry on cells

B1: S2X259 Fab (Fab, V domains shown)
VH: QVQLVQSGAEVKKPGSSVKVSCKASGGIFNTYTISWVRQAPGQGLEWMGRIILMSGMANYAQKIQGRVTITADKSTSTAYMELTSLRSDDTAVYYCARGFNGNYYGWGDDDAFDIWGQGTLVTVYS
VL: QTVLTQPPSVSGAPGQRVTISCTGSNSNIGAGYDVHWYQQLPGTAPKLLICGNSNRPSGVPDRFSGSKSGTSASLAITGLQAEDEADYYCQSYDSSLSGPNWVFGGGTKLTVL
Question: Does B1 bind [1]?
Answer: Result: binds

B2: S2D106 Fab (Fab, V domains shown)
VH: EVQLVQSGAEVKKPGSSVKVSCKASGGPFSSSAISWVRQAPGQGLEWMGGIIPMVGTANYAQKFQGRVTITADESTSTAYMELSSLRSEDTAVYYCARDSRYCSGGSCYSVWFDPWGQGTLVTVSS
VL: not shown
Question: With B2 as the binder, how does the Kd [2] read?
Answer: The Kd was 0.17 nM.

B3: S2H14 IgG1 (antibody, V domains shown)
VH: not shown
VL: NFMLTQPHSVSESPGKTVTISCTRSSGSIASNYVQWYQQRPGSSPTTVIYEDNQRPSGVPDRFSGSIDSSSNSASLTISGLKTEDEADYYCQSYDSSNQVFGGGTKLTVL
Question: Does B3 bind [3]?
Answer: Result: binds
